Test results from patent US20230391872A1 (ANAPTYSBIO, published 2023).

Experiments:
[1] = molecular target: T1, cynomolgus monkey BTLA ECD-his (monomeric cynomolgus monkey BTLA-his) (cynomolgus monkey, UniProt A0A2K5W7M7 31-157); test: Kinetic Exclusion Assay (KinExA 3000), solution phase, 6G3 IgG4 APE10840.04 at 100 pM, cynomolgus monkey BTLA ECD-his titrated
T1 construct: extracellular domain; also called cynomolgus monkey BTLA extracellular domain
T1 sequence: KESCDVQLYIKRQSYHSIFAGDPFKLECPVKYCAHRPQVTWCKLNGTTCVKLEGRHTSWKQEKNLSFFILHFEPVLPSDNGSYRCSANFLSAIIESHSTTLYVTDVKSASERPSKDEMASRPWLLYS
Method: Solution-based affinity measurements of 6G3 IgG4 (APE10840.04 (H Chain SEQ ID NO: 144, L Chain SEQ ID NO: 174)) binding to BTLA were determined on a KinExA 3000 (Sapidyne Instruments). Azlactone beads (ThermoFisher Scientific) were coated with human BTLA ECD-his (30 μg/ml) or cynomolgus monkey BTLA ECD-his (20 μg/ml) in 50 mM Na2CO3 for 2 hours at room temperature and blocked with 10 mg/ml BSA. 6G3 IgG4 APE10840.04 concentration was kept constant at 100 pM for binding in both human and cynomolgus monkey BTLA experiments. Human or cynomolgus monkey BTLA ECD-his was added at 25° C. in 2.5-fold dilutions from 1000 nM to 68 fM. Sample sets were equilibrated at 4° C. for 72 hours and brought to room temperature for 6 hours before capturing free antibody with BTLA-coupled Azlactone beads. […] Maximum and background signals were determined on samples with 6G3 only and buffer only, respectively. Data were analyzed using KinExA Pro Software 3.2.6.

[2] = molecular target: T2, human BTLA on cells (stably transfected 293c18 cells; human peripheral blood T and B cells) (human, UniProt Q7Z6A9 31-289); test: flow cytometry (MFI DyL650) on gated CD20+ B cells of human PBMC, DyLight 650-labelled antibody, three-parameter fit [right panel (Naive B cells]
T2 construct: whole, on cells; the cells are named under assay; also called cell surface BTLA; full-length human BTLA
Method: Human peripheral blood mononuclear cells (PBMCs) were isolated by Histopaque (Sigma-Aldrich) density-gradient centrifugation of normal donor blood obtained from the San Diego Blood Bank (San Diego, CA). PBMCs were washed and incubated at 2×10⁷ cells/ml in FACS buffer (PBS, 1% BSA, 0.02% sodium azide) with Human BD Fc Block (2.5 μg/1×10⁶ cells, BD Biosciences) and LIVE/DEAD® Fixable Yellow Dead Cell Stain (30 μl, ThermoFisher Scientific) for 10 minutes on ice. Cells were washed once in FACS buffer, resuspended in FACS buffer at 1×10⁷ cells/ml and the following phenotyping antibodies added: Alexa Fluor 488-anti-human CD3E clone SK7, Brilliant Violet 421-anti-human CD4 clone OKT4, Brilliant Violet 785-anti-human CD8 clone SK1, and Brilliant Violet 570-anti-human CD20 clone 2H7 (50 μl each; all from BioLegend, Inc.). […] Samples were washed twice in FACS buffer, resuspended in 150 μl/well FACS buffer, and analyzed for fluorescence on a NovoCyte Flow Cytometer (ACEA Biosciences, Inc.). Data were analyzed using NovoExpress Software (ACEA Biosciences, Inc.). Median fluorescence intensities of anti-BTLA or isotype staining on gated CD4⁺ T cells (FIG. 4), CD8⁺ T cells (FIG. 4), or CD20⁺ B cells (FIG. 4) were graphed and curves fit with log(agonist) vs. response (three parameters) least squares fit for EC₅₀ calculation in GraphPad Prism (GraphPad Software, Inc.).

[3] = molecular target: T2, human BTLA on cells (stably transfected …); test: competition flow cytometry on 293c18 cells with human BTLA; increase of the binding of DyLight 650-HVEM-Fc (100 nM) with the antibody concentration [panel A]
Method: 293c18 cells, clone 1E4 stably expressing human BTLA were harvested with Accutase solution (Millipore Sigma/Sigma-Aldrich) and washed once with PBS, 1% BSA. Cells were plated at 2×10⁵ /well in U-bottom 96-well plates and placed on ice. Purified antibodies at twice the indicated concentrations were serially diluted 3-fold in FACS buffer (PBS, 1% BSA, 0.02% sodium azide). Antibodies tested were human IgG4 isotype control antibody specific for hen egg lysozyme, a reference BTLA IgG4 antagonist antibody, and 6G3 IgG4 (APE10840.06). Trimeric HVEM/LIGHT complexes were pre-formed by mixing equimolar (60 nM each) amounts of DyLight 650-HVEM human IgG1 Fc and trimeric LIGHT-foldon-his and pre-incubating for 15 minutes at room temperature. Either DyLight 650-HVEM-Fc (final concentration 100 nM; FIG. 6A) or pre-formed DyLight 650-HVEM/LIGHT complexes (final concentration of HVEM/LIGHT, 30 nM each; FIG. 6B) were added to the diluted antibodies (final concentrations of antibodies as indicated) and incubated for 15 minutes on ice. […] Cells were washed once, resuspended in FACS buffer and analyzed for fluorescence on a BD FACSArray (BD Biosciences). Median fluorescence intensities (MFI) were graphed in GraphPad Prism (GraphPad Software, Inc.) and curves fit with log(agonist) vs. response (three parameters) least squares fit. […]

B1: 6G3 IgG4 anti-BTLA antibody (APE10840 / APE12839 / APE13308) (antibody, V domains shown)
VH: QVQLVQSGAEVKKPGSSVKVSCKASGYVFSTSWMNWVRQAPGQGLEWMGRIYPGDADTNYVGKFKGRVTITADKSTTTAYMELSSLRSEDTAVYFCAKSGTFNFGNYRWYFDVWGKGTTVTVSS
VL: AIQLTQSPSSLSASVGDRVTITCRVSENIYSHLAWYQQKPGKAPKLLIYAATNLALGVPSRFSGSGSGTDYTLTISSLQPEDFATYYCQLFWGPPLTFGGGTKVEIKR
notes: Humanized antibody from a mouse hybridoma, tested as human IgG4 (detected with anti-human kappa); Some assays used labelled lots (DyLight 650, AF647, biotin, DyL488); also called 6G3 antibody; APE10840.03
[1]
  Kd: ~1.66 nM
[2]
  EC50: 0.54 nM
[3]
  EC50 (read off the curve): ~0.7 nM
